# Test results taken from patent US12503518B2, “Heparanase-neutralizing A54 monoclonal antibody” (TECHNION RESEARCH & DEVELOPMENT FOUNDATION LIMITED, priority 2020, dated 2025).
# T1: recombinant human heparanase (Homo sapiens, UniProt Q9Y251)
# T1 construct: purified recombinant active heparanase (200 ng) was pre incubated with the various hybridoma supernatants; recombinant active heparanase (200 ng) was preincubated with control mouse IgG or purified mAb A54
# T1 sequence (Q9Y251 158-543 limits assumed): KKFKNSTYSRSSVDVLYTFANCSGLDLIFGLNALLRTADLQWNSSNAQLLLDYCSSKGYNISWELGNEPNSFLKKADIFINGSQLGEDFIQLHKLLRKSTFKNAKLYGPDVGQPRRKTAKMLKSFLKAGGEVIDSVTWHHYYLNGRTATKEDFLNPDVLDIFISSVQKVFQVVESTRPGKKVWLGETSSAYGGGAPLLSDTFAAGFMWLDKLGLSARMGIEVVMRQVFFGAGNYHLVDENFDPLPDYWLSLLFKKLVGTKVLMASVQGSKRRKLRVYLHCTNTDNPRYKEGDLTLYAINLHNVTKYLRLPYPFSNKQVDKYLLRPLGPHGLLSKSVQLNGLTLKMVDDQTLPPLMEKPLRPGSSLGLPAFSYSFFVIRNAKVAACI
# T1 sequence (Q9Y251 36-109 limits assumed): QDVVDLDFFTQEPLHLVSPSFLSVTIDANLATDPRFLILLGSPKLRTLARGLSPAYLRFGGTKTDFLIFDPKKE
# B1: mAb A54: heparanase-neutralizing murine monoclonal antibody, IgG1-Kappa; VH SEQ ID NO: 7, VL SEQ ID NO: 8; binds HBD-II of heparanase (antibody, listed as Mus musculus, V domains shown)
# VH: QVQLQQSGAELAKPGASVRMSCKASGYTFTNYWMHWVKQRPGQGLEWIGYINPTTGYTEYNQKFKDKATLTADKSSSTAYMQLSSLTSEDSAVYYCARGGAGYDYDEDYAMDYWGQGTSVTVSS
# VL: DIVLTQSPASLAVSLGQRATISCRASESVEYFGTSYMNWYQQKPGQPPKLLIYLASILESGIPARFSGSGSGTDFTLNIHPVEEEDAATYYCQQSNEDPYTFGGGTKLEIK
# Legend:
# [1] = molecular target: T1, recombinant human heparanase; assay: heparanase activity assay: release of HS degradation fragments from 35S-labeled ECM; format: biochemical
# Description: Cell lysates, heparanase activity and protein blotting. Preparation of cell lysates, protein blotting, and measurement of heparanase enzymatic activity were carried out as described (Arvatz et al. Faseb J 2011; 24(12):4969-76). For inhibition studies, highly purified recombinant heparanase (200 ng) was pre-incubated with the indicated antibody ([…]) for 30 min on ice under neutral pH conditions (pH 7.2) before being added to ^35S-labelled ECM, used as a naturally produced substrate for heparanase (Gingis-Velitski et al. 2007, ibid.).
# ECM degradation assay. […] More detail about the preparation of this substrate and its use for the heparanase assay can be found in: Current Protocols in Cell Biology (Vlodavsky 2001; pp. 10.4.1-10.4.14). Briefly, sulfate [^35S] labeled ECM coating the surface of 35 mm tissue culture dishes, is incubated (4 h, 37° C., pH 6.0, 1 ml final volume) with recombinant human heparanase (200 ng/ml) in the absence and presence of the A54 mAb. The reaction mixture contains: 50 mM NaCl, 1 mM DTT, 1 mM CaCl2), and 10 mM buffer Phosphate-Citrate, pH 6.0. To evaluate the occurrence of proteoglycan degradation, the incubation medium is collected and applied for gel filtration on Sepharose 6B columns (0.9×30 cm). Fractions (0.2 ml) are eluted with PBS and counted for radioactivity. […]
# In order to select the hybridoma clone that best inhibits heparanase enzymatic activity, supernatants of the various hybridomas, raised against the 65 kDa latent heparanase protein, were collected, pre-incubated with recombinant heparanase and examined for the capacity to inhibit the release of heparan sulfate (HS) degradation fragments from sulfate labeled ECM. […] The mixture was then applied onto ^35S-labeled ECM-coated dishes and heparanase activity was determined as described under “Materials and Methods” above.
# Next, the ability of purified mAb A54 to inhibit heparanase enzymatic activity was examined. […] The mixture was then applied onto dishes coated with ^35S-labeled ECM, and heparanase enzymatic activity was determined as described in ‘Methods’.
# [2] = system: 4T1 breast carcinoma cells; assay: 4T1 breast carcinoma spontaneous metastasis, orthotopic syngeneic Balb/c model; format: in vivo, mouse
# Description: 4T1 mouse breast carcinoma (spontaneous metastasis). Luciferase labeled 4T1 breast carcinoma cells (1×10^5/Balb/c mouse) are injected directly into the third mammary fat pad and treatment of mice (PBS control vs. mAb A54 500 μg/mouse, 3 times/week began 3 days after 4T1 cell inoculation. Mice were randomized into two groups of 6 mice, 4 days postinoculation (Day 0). On day 15 of the study the mammary fat pad including the primary tumor was excised on all mice while under 2% Isoflurane anaesthetic. Mice were treated with mAb A54 as described above and IVIS bioluminescent imaging is performed 12 and 18 days after mastectomy. At termination, mice are sacrificed and the number of overt macrometastases on the surface of the lungs was enumerated manually (Hammond et al., PLoS One 2012; 7(12):e52175).
# IVIS imaging. Bioluminescent imaging of luciferase-expressing tumors is performed with a highly sensitive, cooled charge coupled device (CCD) camera mounted in a light-tight specimen box (IVIS; Xenogen Corp., Waltham, MA). Imaging is performed in real time, is non-invasive and provides quantitative data. Briefly, mice are injected intraperitoneally with D-luciferin substrate at 150 mg/kg, anesthetized and placed onto a warmed stage inside the light-tight camera box, with continuous exposure to isoflurane (EZAnesthesia, Palmer, PA). Light emitted from the bioluminescent cells is detected by the IVIS camera system with images quantified for tumor burden using a log-scale color range set at 5×10^4 to 1×10^7 and measurement of total photon counts per second (PPS) using Living Image software (Xenogen).
# In subsequent studies, the effect of mAb A54 on cancer metastasis, the hallmark of heparanase activity, was investigated. A syngeneic breast carcinoma model was applied, which resembles the scenario in humans. Briefly, luciferase labeled 4T1 breast carcinoma cells (0.5×10^5) were orthotopically injected into the third mammary fat pad of Balb/c mice. Treatment of the mice (PBS control vs. mAb A54; 500 μg/mouse, 3 times/week) began 3 days after 4T1 cell inoculation. […] On day 15 of the study the mammary fat pad including the primary tumor was excised from all mice (under 2% Isoflurane anesthetic) and weighed. […] Mice were further treated with mAb A54 as described above and IVIS bioluminescent imaging was performed on day 35 (e.g., […]).
molecule,measurement,setting,value
B1,inhibition of the enzyme,"[1]; 0.1 μg/ml antibody, preincubated 1 h with active heparanase (200 ng), FIG. 3B",~75%
same,inhibition of heparanase enzymatic activity,"[1]; 1 μg/ml antibody, preincubated 1 h with active heparanase (200 ng), FIG. 3A",complete inhibition
same,decrease in the amount of released sulfate labeled HS degradation products,"[1]; hybridoma supernatant pre-incubated 2 h on ice with recombinant active heparanase (200 ng), FIG. 1",~80%
same,luciferase signal generated by the primary tumors,"[2]; 500 μg/mouse, 3 times/week, IVIS on day 12, vs PBS",no differences in the luciferase signal
same,lung metastases (IVIS signal after mastectomy),"[2]; 500 μg/mouse, 3 times/week, IVIS on day 35, two out of 5 untreated mice developed lung metastases",hardly-detected signal
same,weight of excised primary tumors,"[2]; 500 μg/mouse, 3 times/week, excised day 15, vs untreated",no difference in weights
same,inhibition of lung colonization,[2]; repeated experiment with similar results,almost complete inhibition of lung colonization
